In patent publication US20190338026A1 (University of Texas, published 2019):
Where a chain is given by its changes, count along the chain named.

T1: human LAIR1 extracellular domain (ECD) protein with 6 HIS tag at the C-terminus (human, UniProt Q6GTX8 22-165)
T1 construct: Produced recombinantly in HEK293 cells; the whole entry is named here; also called LAIR1 ECD; LAIR1-ECD
T1 chain: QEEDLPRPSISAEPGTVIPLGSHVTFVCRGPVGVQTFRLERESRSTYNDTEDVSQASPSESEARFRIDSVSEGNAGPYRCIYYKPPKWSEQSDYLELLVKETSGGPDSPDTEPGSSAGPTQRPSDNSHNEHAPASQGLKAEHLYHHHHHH

T2: LAIR1 on LAIR1 reporter cells (human, UniProt Q6GTX8 22-165, limits assumed)
T2 chain: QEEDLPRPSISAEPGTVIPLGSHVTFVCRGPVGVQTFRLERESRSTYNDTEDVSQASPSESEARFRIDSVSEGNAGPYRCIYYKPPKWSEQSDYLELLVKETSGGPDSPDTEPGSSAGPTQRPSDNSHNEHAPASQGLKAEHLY

B1: LA-101 (antibody, V domains shown)
VH: EQSVEESGGRLVTPGTPLTLTCTVSGFSLSSFHMCWVRQAPGKGLEYIGIIYPGGSTGYANWAKGRFTVSKASNTVDLKISSPTTEDTATYFCARVNYGDWINGMDLWGPGTLVTISS
VL: ELDMTQTPASVSEPVGGTVTIKCQASQSIGSNLAWYQQKPGQRPKLLIYKASTLASGVPSRFKGSGSGTDFTLTISDLECADAASYYCQQAYWSGNVDNVFGGGTEVEIK
notes: Rabbit monoclonal IgG
B2: LA-35 (antibody, V domains shown)
VH: EQSVKESGGRLVTPGTPLTLTCTVSGIDLSYYSMGWFRQAPGKGLEWIGVISSSDSTYYANWAKGRFTISKTSTTVDLKIAGPTTEDTATYFCARVLANSYNAFNLWGPGSLVTISS
VL: ELDLTQTPASVSEPVGGTVTIKCQASQSVGSRLAWYQQKPGQPPKLLIYKASTLASGVPSRFKGSGSGTQFTLTMSDLECADAATYYCQCTNISSAYLGAFGGGTEVEIK
notes: Rabbit monoclonal IgG; also called mAb LA-35
B3: LA-117 (antibody, V domains shown)
VH: QSVKESGGDLVKPGASLTLACTASGFSFSDGYYMCWVRQAPGKGLEWIGCIHSSSGSIYYASWAKGRFTISKTSSTMVTLQMSSLTAADTATYFCARDSESYGYNPCELWGPGTLVTISS
VL: ELDLTQTPASVSEAVGGTVTIKCQASQTISNYLAWYQQKPGQRPKLLIYAASSLASGVSSRFRGSRSGTEYTLTITDLECDDAATYYCQCTYYGTTYVGGAFGGGTELEIK
notes: Rabbit monoclonal IgG
B4: LA-222 (antibody, V domains shown)
VH: EQSVEESGGDLVKPGASLTLTCTASGFSFTYWICWVRQAPGKGLEWIACIYAGSSGDTYYASWAKGRFTISKTSSTTVTLQMTSLTAADTATYFCARSPDYVAWGYDLWGPGTRVTVSS
VL: ELVLTQTPASVSAAVGGTVTINCQASQSIGTNLVWYQQKPGQPPKLLFYYASTLASGVPSRFRGSRSGTEYTLTISDLECADAATYYCQCIYYGGNYGHTFGGGTEVVVK
notes: Rabbit monoclonal IgG
B5: LA-151 (antibody, V domains shown)
VH: SSSVEESGGRLVTPGTPLTLTCTVSGFSLGSYAMGWVRQGPGKGLEWIGAVYGTTGYIYFATWAKGRFTISKTSTTVDLKITSPTTEDTATYFCARGYLTDSIANGFGVWGPGTLVTVSS
VL: ELDLTQTPASVSEPVGGTVTIKCQASQTITNRYLAWYQQKPGQPPKLLIYQSSKLASGVSSRFKGSGSGTDFTLTISDLECADAATYYCQCTDYGSTYLGTFGGGTEVEIK
notes: Rabbit monoclonal IgG
B6: LA-87 (antibody, V domains shown)
VH: QSVKESGGRLVTPGGSLTLTCTVSGFSLSNYNIQWVRQAPGKGLEWIGFISPAGNGYYASWAKGRFTISKASSTTVELKMTSLTASDTATYFCARHWDLWGPGTLVTISS
VL: ELVLTQTASSVSAAVGGTVTISCQSSQSVYSNYLSWFQQKPGQPPKELVYWTSTLQSGVPSRFSGSGSGTQFTLTISDLECDDAATYYCLGGYSGWFYAFGGGTEVVVK
notes: Rabbit monoclonal IgG; also called mAb LA-87
B7: LA-95 (antibody, V domains shown)
VH: EQSLKESGGRLVTPGGSLTLTCTASGFDINNYNIQWVRQAPGKGLEWIGFISPAGNEYSATWAKGRFTIYKTSSTTVELKMTSLTASDTATYFCARHWDSWGPGTLVTISS
VL: B6 VL with L4M, A8E, S10P, Y33R, W96N, F97I, A99V, V107E, V108I
notes: Rabbit monoclonal IgG; also called mAb LA-95
B8: LA-30 (antibody, V domains shown)
VH: EQSVESGGGLVQPEGSLTLTCKASGFDFSRNAICWVRQAPGKGPEWIACYSFSSSATYYASWAKSRFTISKTSSTTVTLQMTSLTAADTATYFCARVDIYGGSRYWGMWGPGTLVTISS
VL: ELVMTQTPASVEAAVGGTVTIKCQASQNIGGDLAWYQQKPGQPPKLLIYRASTLESGVPSRFSGSGSGTEFTLTISDLECADAATYYCQDTDIGSGAFGGGTELEIK
notes: Rabbit monoclonal IgG; also called mAb LA-30
B9: LA-64 (antibody, V domains shown)
VH: EQSLESGGGLITPGGTLTLTCTASGFTVTRYYMNWVRQAPGKGLEWIGYIYASSKTYYANWAKGRFTISKTSTTVDLKMTSLTAEDTGTYFCARGGVGNSGLNLDLWGPGTLVTISS
VL: ELVLTQTPASVSEPVGGTVTIKCQASQSIGSWLAWYQQKPGQPPKLLIYQASRLASGVSSRFGGSGSGTEFTLTISDLECADAATYYCQQAEYSGDVENTFGGGTEVVVK
notes: Rabbit monoclonal IgG; also called mAb LA-64
B10: LA-155 (antibody, V domains shown)
VH: EQSLEESGGDLVKPEGSLTLTCTASGFSFNSNYWICWVRQTPGKGLEWIGCIYSGSSGDTYYASWAKGRFTISKTSSTTVTLQMTSLTAADTATYFCARGADYVYWSYGLWGPGTLVTISS
VL: ELVLTQTPASVSAAVGGTLTIKCQASETIGTNLAWYQQKPGQPPKLLIYLASYLASGVSSRFKGSRSGTEFTLTISDLDCDDAATYYCQSTHFGNGHTFGGGTEVVVK
notes: Rabbit monoclonal IgG
B11: LA-37 (antibody, V domains shown)
VH: EQSLEESGGDLVKPGASLTLTCKASGFSFSSSEFMCWVRQAPGKGLEWIACIYGGLSDDTYFASWAKGRFTISKTSSITVTLQMTSLTAADTATYFCARSCDVNYYGFDPWGPGTLVTISS
VL: ELVLTQTPAPVSAAVGDTVTIKCQASQNKGTNLAWYQQKPGQPPKLLIYLSSTLASGVPPRFKGSRSGTEYTLTISDLECADAATYFCQSTYYGSNGLTFGGGTEVEIK
notes: Rabbit monoclonal IgG; also called mAb LA-37
B12: LA-63 (antibody, V domains shown)
VH: EQSVEESGGRLVAPGGSLTLTCTVSGFSLSSYAMSWVRQAPGKGLEWIGVMYNSGSAYYASWAKGRFTISRTSTTVDLKVTSLTTEDTATYFCGRGGSNSAWGDDLWGPGTLVTVSS
VL: ELDMTQTPASVSEPVGGTVTIKCQASQSISIRYFSWYQQKPGQPPKLLIYGASTLASGVPSRFKGSGSGTDFTLTISDLECADAATYYCQDSNYNSNYFGAFGGGTEVVVK
notes: Rabbit monoclonal IgG; also called mAb LA-63

Target: T1, human LAIR1 extracellular domain (ECD) …
Test: ELISA, LAIR1 ECD coated
Experimental: (§1) The inventors then used a concentration titration (0-10 μg/ml) by ELISA to determine the LAIR1 monoclonal antibody (mAbs) binding to human LAIR1 ECD. […] For FIGS. 2-39, X axis indicates the antibody concentrations and Y-axis is binding signals, measured as OD (450 nm). To perform the ELISA assay, LAIR1 ECD recombinant protein was coated on high absorption 96-well plates. Serial diluted (3-fold) LAIR1 mAb was added to the coated/blocked plates and detected using goat anti-rabbit F(ab′)2 conjugated HRP as secondary antibody. All assays were repeated 3 times and the titration curves were fitted using 4-parameter fitting curve using the GraphPad software for EC₅₀ estimation.
(§2) Serial dilutions of the LAIR1 monoclonal antibodies (IgGs or scFvs fragments), starting from […] and 3-fold titration down for 12 steps, were added to the 96-well plate for binding by incubating 45 minutes at 37° C. with a cover on the assay plate. Then the plates were washed with PBS containing Tween 20 (0.05% concentration) for 3 times and PBS one time. […] Detection was conducted by adding HRP substrate, TMB (ThermoFisher) for 10 minutes, and stopped by adding 50 μl/well of 2N H2504. The plates were read for absorbance at 450 nm using a plate reader (SpectraMax M4, Molecular Devices). Data were collected and graphed using a 4-parameter fitting curve with GrapPad Prism 7 software for EC₅₀ calculation.

| EC50 (read off the curve) [ng/mL] | Binder |
| --- | --- |
| ~8 | B1 |
| ~10 | B2 |
| ~10 | B3 |
| ~7 | B4 |
| ~10 | B5 |
| ~10 | B6 |
| ~7 | B7 |
| ~10 | B8 |
| ~10 | B9 |
| ~7 | B10 |
| ~8 | B11 |

Target: T1, human LAIR1 extracellular domain (ECD) …
Test: ELISA, LAIR1 ECD coated, mAb titrated, anti-rabbit HRP
Experimental: as §1, §2

| EC50 [nM] | Binder |
| --- | --- |
| 0.05 | B1 |
| 0.08 | B2 |
| 234 | B12 |
| 0.08 | B3 |
| 0.05 | B4 |
| 0.08 | B5 |
| 0.06 | B6 |
| 0.04 | B7 |
| 0.07 | B8 |
| 0.09 | B9 |
| 0.04 | B10 |
| 0.05 | B11 |

Target: T2, LAIR1 on LAIR1 reporter cells
Test: cell-based or functional assay

| GFP+% of LAIR1 reporter cells, collagen I coated, soluble Ab [%] | Binder |
| --- | --- |
| 2.92 | B1 |
| 1.1 | B2 |
| 2.42 | B12 |
| 3.19 | B3 |
| 0.905 | B4 |
| 0.678 | B5 |
| 1.45 | B6 |
| 0.711 | B7 |
| 1.51 | B8 |
| 1.5 | B9 |
| 0.746 | B10 |
| 0.86 | B11 |

Target: T2, LAIR1 on LAIR1 reporter cells
Test: cell-based or functional assay
Remark: another data set of the same source

| GFP+% of LAIR1 reporter cells, collagen I coated, soluble Ab and K562 cells [%] | Binder |
| --- | --- |
| 1.13 | B2 |
| 1.31 | B12 |
| 0.792 | B4 |
| 1.95 | B5 |
| 0.844 | B6 |
| 0.595 | B7 |
| 1.94 | B8 |
| 2.29 | B9 |
| 0.867 | B10 |
| 1.08 | B11 |
